Measured values as given in patent EP4386000A1 (Nanjing Novoacine Bio-Technology Co., Ltd., dated 2024).

T1: human CD25 (NP_000408.1) (Met 1-Cys 213) C-terminally fused with 6-histidine tag (human, UniProt P01589 22-213)
T1 construct: range 1-213; Expressed in CHO-K1 cells; also called human CD25-his
T1 sequence: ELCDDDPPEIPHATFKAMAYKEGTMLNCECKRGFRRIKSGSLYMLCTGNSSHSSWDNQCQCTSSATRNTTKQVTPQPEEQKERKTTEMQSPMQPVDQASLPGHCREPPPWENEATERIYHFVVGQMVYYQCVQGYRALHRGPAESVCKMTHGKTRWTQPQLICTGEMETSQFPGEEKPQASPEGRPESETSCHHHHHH


Biological target: T1, human CD25 (NP_000408.1) (Met 1-Cys …)
Assay: SPR (BIAcore X100), human CD25-his captured by anti-histidine antibody, antibody as analyte, 1:1 model

Row | Kd | koff | kon | Binder
1 | 4.46 nM | 0.00205 s⁻¹ | 461000 M⁻¹ s⁻¹ | humanized antibody 2047-10H2L2 (antibody, human IgG1, kappa, V domains shown) VH: EVQLVQSGAEVKKPGATVKISCKGSGYTFTDYAMHWVQQAPGKGLEWMGVISTYSGNTNYNQKFKGRVTITVDKSTSTAYMELSSLRSEDTAVYYCARSYGNYPFDYWGQGTLVTVSS VL: DIQMTQSPSSLSASVGDRVTITCKASQDITSYLSWFQQKPGKAPKTLIYRANRLVDGVPSRFSGSGSGQDYTLTISSLQPEDMATYYCLQYDEFPYTFGQGTKLEIKR
2 | 0.994 nM | 0.00394 s⁻¹ | 3.96e+06 M⁻¹ s⁻¹ | humanized antibody 2046-36H1L1 (antibody, human IgG1, kappa, V domains shown) VH: EIQLVQSGSELKKPGASVKVSCKASGYTFTTAGMQWVRQAPGQGLEWMGWINTHSGVPKYAEDFKGRFVFSLDTSVSTAYLQISSLKAEDTAVYYCASDYAFGYWGQGTLVTVSS VL: DVVMTQSPLSLPVTLGQPASISCKSSQSLLYSNGKTYLYWLQQRPGQSPRRLIYLVSKLDSGVPDRFSGSGSGTDFTLKISRVEAEDLGVYYCVQGTHFPYTFGQGTKLEIKR
3 | 1.43 nM | 0.000498 s⁻¹ | 348000 M⁻¹ s⁻¹ | humanized antibody 2047-3H1L2 (antibody, human IgG1, kappa, V domains shown) VH: EVQLVQSGAEVKKPGATVKISCKTSGYTFTDYVISWVQQAPGKGLEWMGEIYPGSGSTYYNEKFKGRVTITADISTNTAYMELSSLRSEDTAVYYCASINFDYWGQGTLVTVSS VL: EIVMTQSPATLSLSPGERATLSCRASQSISDYLHWYQQKPGQAPRLLIKYASQSISGIPARFSGSGSGSDFTLTISSLQPEDVAVYYCQSGHSFPYTFGQGTKLEIKR
4 | 6.35 nM | 0.00414 s⁻¹ | 652000 M⁻¹ s⁻¹ | humanized antibody 2046-111H1L1-m2 (antibody, human IgG1, kappa, V domains shown) VH: EVQLQESGPGLVKPSQTLSLTCTVSGHSITSDYAWNWIRQPPGKGLEWIGYISYSGSTIYNPSLKSRVTISRDTSKNQFSLKLSSVTAADTAVYYCARWLLQNYYAMDYWGQGTLVTVSS VL: EIVLTQSPGTLSLSPGERATLSCRSSQSLVHSNGNTYLHWYQQKPGQAPRLLIYKVSNRFSGIPDRFSGSGSGTDFTLTISRLEPEDFAVYYCSQSTHVPLTFGQGTKLEIKR
